Here are results for 16 substances from publication PMC3438196.

Common to all, as to assay: MAPPIT
For experiment [1], the target named is Gagpol MAPPIT prey (pMG2-Gagpol).
The target is the same in experiment [2]. This is another data set of the same source.
In experiment [3] the target is Gag MAPPIT prey (pMG2-Gag). The note with it: stimulation with Epo; parent: est. 38; read off a plot.

Read-outs that look alike come from different tables or passages of the source.

With “Apobec3G-GFP MAPPIT bait (pCEL-Apobec3G-GFP) (from UniProt Q9HC16) K79M”, in experiment [1], the percent of parent is 32 % of WT.

For the substance “Apobec3G-GFP MAPPIT bait (pCEL-Apobec3G-GFP) (from UniProt Q9HC16) R136S”, in experiment [2], the percent of parent was 24 % of WT.

In the case of “Apobec3G-GFP MAPPIT bait (pCEL-Apobec3G-GFP) (from UniProt Q9HC16) H81L”, the percent of parent in experiment [1] is 33 % of WT.

In the case of “Apobec3G-GFP MAPPIT bait (pCEL-Apobec3G-GFP) (from UniProt Q9HC16) E191V”, in experiment [2], the percent of parent was 8 % of WT.

Take “Apobec3G-GFP MAPPIT bait (pCEL-Apobec3G-GFP) (from UniProt Q9HC16) R122C”: in experiment [2], the percent of parent was 5 % of WT.

Turning to “Apobec3G-GFP MAPPIT bait (pCEL-Apobec3G-GFP) (from UniProt Q9HC16) R78W”, the percent of parent in experiment [1] was 6 % of WT.

As for “Apobec3G-GFP MAPPIT bait (pCEL-Apobec3G-GFP) (from UniProt Q9HC16) Y222N”, the percent of parent in experiment [1] is 6 % of WT.

As for “Apobec3G-GFP MAPPIT bait (pCEL-Apobec3G-GFP) (from UniProt Q9HC16) R238C”, the percent of parent in experiment [1] was 56 % of WT.

Take “Apobec3G-GFP MAPPIT bait (pCEL-Apobec3G-GFP) (from UniProt Q9HC16) Q237K”: the percent of parent in experiment [1] was 46 % of WT.

For the substance “Apobec3G-GFP MAPPIT bait (pCEL-Apobec3G-GFP) (from UniProt Q9HC16) W94R”, the percent of parent in experiment [2] is 13 % of WT.

Consider “Apobec3G-GFP MAPPIT bait (pCEL-Apobec3G-GFP) (from UniProt Q9HC16) N20D”, for which, in experiment [2], the percent of parent is 22 % of WT.

Consider “Apobec3G-GFP MAPPIT bait (pCEL-Apobec3G-GFP) (from UniProt Q9HC16) R30L”, for which the percent of parent in experiment [2] and in experiment [1] was 5 % of WT in each case.

As to “Apobec3G-GFP MAPPIT bait (pCEL-Apobec3G-GFP) (from UniProt Q9HC16) K270E”, the percent of parent in experiment [1] was 67 % of WT.

In the case of “Apobec3G-GFP MAPPIT bait (pCEL-Apobec3G-GFP) (from UniProt Q9HC16) W269G”, the percent of parent in experiment [1] was 33 % of WT.

Take “Apobec3G MAPPIT bait (pCEL-Apobec3G) (from UniProt Q9HC16) YFW125-127DY”: in experiment [3], the response (fold induction) came to 2.2.

Consider “Apobec3G-GFP MAPPIT bait (pCEL-Apobec3G-GFP) (from UniProt Q9HC16) D128G”, for which the percent of parent in experiment [2] was 11 % of WT.
